According to doi:10.1101/2025.05.22.655678:
Residue numbers refer to the chain shown, from its start. Numbers in names are those of the source. Read-outs that look alike come from different tables or passages of the source.

B1: 60bp-4 (dsDNA)
DNA 1: GGATGCCCGCGTTGCAGGCCATGCTGTCCAGGCAGGTAGATGACGACCATCAGGGACAGC
DNA 2: GCTGTCCCTGATGGTCGTCATCTACCTGCCTGGACAGCATGGCCTGCAACGCGGGCATCC
modifications: N6-methyladenine in any context (M.EcoGII)
B2: 60bp-5 (dsDNA)
DNA 1: TGACGACCATCAGGGACAGCTTCAAGGATCGCTCGCGGCTCTTACCAGCCTAACTTCGAT
DNA 2: ATCGAAGTTAGGCTGGTAAGAGCCGCGAGCGATCCTTGAAGCTGTCCCTGATGGTCGTCA
modifications: N6-methyladenine in any context (M.EcoGII)
B3: 60bp-7 (dsDNA)
DNA 1: CGGCGATTTATGCCGCCTCGGCGAGCACATGGAACGGGTTGGCATGGATTGTAGGCGCCG
DNA 2: CGGCGCCTACAATCCATGCCAACCCGTTCCATGTGCTCGCCGAGGCGGCATAAATCGCCG
modifications: N6-methyladenine in any context (M.EcoGII)
B4: 60bp-2-V (dsDNA)
DNA 1: GGGCTACGTCTTGCTGGCGTTCGCGACTTTTTGCTGGATGGCCTTCCCCATTATGATTCT
DNA 2: AGAATCATAATGGGGAAGGCCATCCAGCAAAAAGTCGCGAACGCCAGCAAGACGTAGCCC
modifications: N6-methyladenine in any context (M.EcoGII)
B5: 60bp-7-V (dsDNA)
DNA 1: B3 DNA 1 with G21T, C22T, G23T, A24T, G25T
DNA 2: B3 DNA 2 with C36A, T37A, C38A, G39A, C40A
modifications: N6-methyladenine in any context (M.EcoGII)
B6: CCGAG (dsDNA)
DNA 1: B4 DNA 1 with T28C, T29C, T30G, T31A, T32G
DNA 2: B4 DNA 2 with A29C, A30T, A31C, A32G, A33G
modifications: N6-methyladenine in any context (M.EcoGII)
B7: TCGAG (dsDNA)
DNA 1: B4 DNA 1 with T29C, T30G, T31A, T32G
DNA 2: B4 DNA 2 with A29C, A30T, A31C, A32G
modifications: N6-methyladenine in any context (M.EcoGII)
B8: GGGAG (dsDNA)
DNA 1: B4 DNA 1 with T28G, T29G, T30G, T31A, T32G
DNA 2: B4 DNA 2 with A29C, A30T, A31C, A32C, A33C
modifications: N6-methyladenine in any context (M.EcoGII)
B9: GAGAG (dsDNA)
DNA 1: B4 DNA 1 with T28G, T29A, T30G, T31A, T32G
DNA 2: B4 DNA 2 with A29C, A30T, A31C, A32T, A33C
modifications: N6-methyladenine in any context (M.EcoGII)
B10: GTGAG (dsDNA)
DNA 1: B4 DNA 1 with T28G, T30G, T31A, T32G
DNA 2: B4 DNA 2 with A29C, A30T, A31C, A33C
modifications: N6-methyladenine in any context (M.EcoGII)
B11: GCCAG (dsDNA)
DNA 1: B4 DNA 1 with T28G, T29C, T30C, T31A, T32G
DNA 2: B4 DNA 2 with A29C, A30T, A31G, A32G, A33C
modifications: N6-methyladenine in any context (M.EcoGII)
B12: GCAAG (dsDNA)
DNA 1: B4 DNA 1 with T28G, T29C, T30A, T31A, T32G
DNA 2: B4 DNA 2 with A29C, A30T, A31T, A32G, A33C
modifications: N6-methyladenine in any context (M.EcoGII)
B13: GCTAG (dsDNA)
DNA 1: B4 DNA 1 with T28G, T29C, T31A, T32G
DNA 2: B4 DNA 2 with A29C, A30T, A32G, A33C
modifications: N6-methyladenine in any context (M.EcoGII)
B14: GCGAC (dsDNA)
DNA 1: B4 DNA 1 with T28G, T29C, T30G, T31A, T32C
DNA 2: B4 DNA 2 with A29G, A30T, A31C, A32G, A33C
modifications: N6-methyladenine in any context (M.EcoGII)
B15: GCGAA (dsDNA)
DNA 1: B4 DNA 1 with T28G, T29C, T30G, T31A, T32A
DNA 2: B4 DNA 2 with A29T, A30T, A31C, A32G, A33C
modifications: N6-methyladenine in any context (M.EcoGII)
B16: GCGAT (dsDNA)
DNA 1: B4 DNA 1 with T28G, T29C, T30G, T31A
DNA 2: B4 DNA 2 with A30T, A31C, A32G, A33C
modifications: N6-methyladenine in any context (M.EcoGII)
B17: 59bp-GAG (dsDNA)
DNA 1: TTTTTTTTTTTTTTTTTTTTTTTTTTTTGAGTTTTTTTTTTTTTTTTTTTTTTTTTTTT
DNA 2: AAAAAAAAAAAAAAAAAAAAAAAAAAAACTCAAAAAAAAAAAAAAAAAAAAAAAAAAAA
modifications: N6-methyladenine at A of GAG (position 30, printed M6A); legend says M.EcoGII-methylated
B18: ss-59nt-GAG (ssDNA)
DNA: B17 DNA 1
modifications: N6-methyladenine at A of GAG (position 30)
B19: 60bp-1 (dsDNA)
DNA 1: AGAAGCAGGCCATTATCGCCGGCATGGCGGCCGACGCGCTGGGCTACGTCTTGCTGGCGT
DNA 2: ACGCCAGCAAGACGTAGCCCAGCGCGTCGGCCGCCATGCCGGCGATAATGGCCTGCTTCT
modifications: N6-methyladenine in any context (M.EcoGII)
B20: 60bp-2 (dsDNA)
DNA 1: B4 DNA 1 with T28G, T29C, T30G, T31A, T32G
DNA 2: B4 DNA 2 with A29C, A30T, A31C, A32G, A33C
modifications: N6-methyladenine in any context (M.EcoGII)
B21: 60bp-3 (dsDNA)
DNA 1: GCCTTCCCCATTATGATTCTTCTCGCTTCCGGCGGCATCGGGATGCCCGCGTTGCAGGCC
DNA 2: GGCCTGCAACGCGGGCATCCCGATGCCGCCGGAAGCGAGAAGAATCATAATGGGGAAGGC
modifications: N6-methyladenine in any context (M.EcoGII)

Key:
VchI [1] = target: T1, VchI (Vibrio cholerae); test: EMSA
T1 chain: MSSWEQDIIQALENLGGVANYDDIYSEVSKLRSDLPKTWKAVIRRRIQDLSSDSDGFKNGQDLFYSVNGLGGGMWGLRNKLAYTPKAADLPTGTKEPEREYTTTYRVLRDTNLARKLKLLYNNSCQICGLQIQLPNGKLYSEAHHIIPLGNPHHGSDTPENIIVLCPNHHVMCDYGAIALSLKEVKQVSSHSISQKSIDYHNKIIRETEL

VchI [2] = target: T1, VchI; test: EMSA

Row | Binder | binding result (VchI [1]) | binding result (VchI [2])
1 | B1 | no binding | 
2 | B2 | binds | 
3 | B3 | binds | 
4 | B4 |  | no binding
5 | B5 |  | binds
6 | B6 |  | binds
7 | B7 |  | binds
8 | B8 |  | binds
9 | B9 |  | binds
10 | B10 |  | binds
11 | B11 |  | no binding
12 | B12 |  | no binding
13 | B13 |  | no binding
14 | B14 |  | no binding
15 | B15 |  | no binding
16 | B16 |  | no binding
17 | B17 |  | binds
18 | B18 |  | no binding
19 | B19 | no binding | 
20 | B20 | binds | 
21 | B21 | binds | 
